The results in this text go back to patent US20230365714A1 (published 2023).

B1: IgG1-ROR2-A-HC5LC3-FEAR (antibody)
heavy: EVQLLESGGGLVQPGGSLRLSCAASGFSLSSYSMSWVRQAPGKGLEWIGVIYVNSKTWYANWAKGRFTISKDNSKNTVYLQMNSLRAEDTATYYCARGDAGYTTNSWLWGQGTLVTVSSASTKGPSVFPLAPSSKSTSGGTAALGCLVKDYFPEPVTVSWNSGALTSGVHTFPAVLQSSGLYSLSSVVTVPSSSLGTQTYICNVNHKPSNTKVDKRVEPKSCDKTHTCPPCPAPEFEGGPSVFLFPPKPKDTLMISRTPEVTCVVVAVSHEDPEVKFNWYVDGVEVHNAKTKPREEQYNSTYRVVSVLTVLHQDWLNGKEYKCKVSNKALPAPIEKTISKAKGQPREPQVYTLPPSREEMTKNQVSLTCLVKGFYPSDIAVEWESNGQPENNYKTTPPVLDSDGSFFLYSRLTVDKSRWQQGNVFSCSVMHEALHNHYTQKSLSLSPGK
VL: AFELTQSPSSLSASVGDRVTITCQASESIDNYLSWYQQKPGKAPKLLIYQAFKLASGVPSRFRGSGSGTDFTLTISSLQPEDFATYYCQSYSGISTTAFGGGTKVEIK
notes: Humanized variant
B2: IgG1-ROR2-A-HC6LC1-FEAR (antibody, V domains shown)
VH: EVQLLESGGGLVQPGGSLRLSCTVSGFSLSSYSMSWVRQAPGKGLEWIGVIYVNSKTWYADSVKGRFTISKDNSKNTVYLQMNSLRAEDTATYYCARGDAGYTTNSWLWGQGTLVTVSS
VL: AFELTQSPSSLSASVGDRVTITCQASESIDNYCSWYQQKPGKAPKLLIYQAFKLASGVPSRFRGSGSGTDFTLTISSLQSEDFATYYCQSYSGISTTAFGGGTEVVIK
notes: Humanized variant
B3: IgG1-ROR2-A-HC6LC4-FEAR (antibody)
heavy: EVQLLESGGGLVQPGGSLRLSCTVSGFSLSSYSMSWVRQAPGKGLEWIGVIYVNSKTWYADSVKGRFTISKDNSKNTVYLQMNSLRAEDTATYYCARGDAGYTTNSWLWGQGTLVTVSSASTKGPSVFPLAPSSKSTSGGTAALGCLVKDYFPEPVTVSWNSGALTSGVHTFPAVLQSSGLYSLSSVVTVPSSSLGTQTYICNVNHKPSNTKVDKRVEPKSCDKTHTCPPCPAPEFEGGPSVFLFPPKPKDTLMISRTPEVTCVVVAVSHEDPEVKFNWYVDGVEVHNAKTKPREEQYNSTYRVVSVLTVLHQDWLNGKEYKCKVSNKALPAPIEKTISKAKGQPREPQVYTLPPSREEMTKNQVSLTCLVKGFYPSDIAVEWESNGQPENNYKTTPPVLDSDGSFFLYSRLTVDKSRWQQGNVFSCSVMHEALHNHYTQKSLSLSPGK
VL: DIQLTQSPSSLSASVGDRVTITCQASESIDNYLSWYQQKPGKAPKLLIYQAFKLASGVPSRFRGSGSGTDFTLTISSLQPEDFATYYCQSYSGISTTAFGGGTKVEIK
notes: Humanized variant
B4: IgG1-ROR2-A-HC7LC3-FEAR (antibody)
heavy: EVQLLESGGGLVQPGGSLRLSCAASGFSLSSYSMSWVRQAPGKGLEWIGVIYVNSKTWYADSVKGRFTISKDNSKNTVYLQMNSLRAEDTATYYCARGDAGYTTNSWLWGQGTLVTVSSASTKGPSVFPLAPSSKSTSGGTAALGCLVKDYFPEPVTVSWNSGALTSGVHTFPAVLQSSGLYSLSSVVTVPSSSLGTQTYICNVNHKPSNTKVDKRVEPKSCDKTHTCPPCPAPEFEGGPSVFLFPPKPKDTLMISRTPEVTCVVVAVSHEDPEVKFNWYVDGVEVHNAKTKPREEQYNSTYRVVSVLTVLHQDWLNGKEYKCKVSNKALPAPIEKTISKAKGQPREPQVYTLPPSREEMTKNQVSLTCLVKGFYPSDIAVEWESNGQPENNYKTTPPVLDSDGSFFLYSRLTVDKSRWQQGNVFSCSVMHEALHNHYTQKSLSLSPGK
VL: AFELTQSPSSLSASVGDRVTITCQASESIDNYLSWYQQKPGKAPKLLIYQAFKLASGVPSRFRGSGSGTDFTLTISSLQPEDFATYYCQSYSGISTTAFGGGTKVEIK
notes: Humanized variant
B5: IgG1-ROR2-A-HC6LC2-FEAR (antibody, V domains shown)
VH: EVQLLESGGGLVQPGGSLRLSCTVSGFSLSSYSMSWVRQAPGKGLEWIGVIYVNSKTWYADSVKGRFTISKDNSKNTVYLQMNSLRAEDTATYYCARGDAGYTTNSWLWGQGTLVTVSS
VL: AFELTQSPSSLSASVGDRVTITCQASESIDNYLSWYQQKPGKAPKLLIYQAFKLASGVPSRFRGSGSGTDFTLTISSLQSEDFATYYCQSYSGISTTAFGGGTEVVIK
notes: Humanized variant
B6: IgG1-ROR2-A-HC5LC4-FEAR (antibody)
heavy: EVQLLESGGGLVQPGGSLRLSCAASGFSLSSYSMSWVRQAPGKGLEWIGVIYVNSKTWYANWAKGRFTISKDNSKNTVYLQMNSLRAEDTATYYCARGDAGYTTNSWLWGQGTLVTVSSASTKGPSVFPLAPSSKSTSGGTAALGCLVKDYFPEPVTVSWNSGALTSGVHTFPAVLQSSGLYSLSSVVTVPSSSLGTQTYICNVNHKPSNTKVDKRVEPKSCDKTHTCPPCPAPEFEGGPSVFLFPPKPKDTLMISRTPEVTCVVVAVSHEDPEVKFNWYVDGVEVHNAKTKPREEQYNSTYRVVSVLTVLHQDWLNGKEYKCKVSNKALPAPIEKTISKAKGQPREPQVYTLPPSREEMTKNQVSLTCLVKGFYPSDIAVEWESNGQPENNYKTTPPVLDSDGSFFLYSRLTVDKSRWQQGNVFSCSVMHEALHNHYTQKSLSLSPGK
VL: DIQLTQSPSSLSASVGDRVTITCQASESIDNYLSWYQQKPGKAPKLLIYQAFKLASGVPSRFRGSGSGTDFTLTISSLQPEDFATYYCQSYSGISTTAFGGGTKVEIK
notes: Humanized variant
B7: IgG1-ROR2-A-HC6LC3-FEAR (antibody)
heavy: EVQLLESGGGLVQPGGSLRLSCTVSGFSLSSYSMSWVRQAPGKGLEWIGVIYVNSKTWYADSVKGRFTISKDNSKNTVYLQMNSLRAEDTATYYCARGDAGYTTNSWLWGQGTLVTVSSASTKGPSVFPLAPSSKSTSGGTAALGCLVKDYFPEPVTVSWNSGALTSGVHTFPAVLQSSGLYSLSSVVTVPSSSLGTQTYICNVNHKPSNTKVDKRVEPKSCDKTHTCPPCPAPEFEGGPSVFLFPPKPKDTLMISRTPEVTCVVVAVSHEDPEVKFNWYVDGVEVHNAKTKPREEQYNSTYRVVSVLTVLHQDWLNGKEYKCKVSNKALPAPIEKTISKAKGQPREPQVYTLPPSREEMTKNQVSLTCLVKGFYPSDIAVEWESNGQPENNYKTTPPVLDSDGSFFLYSRLTVDKSRWQQGNVFSCSVMHEALHNHYTQKSLSLSPGK
VL: AFELTQSPSSLSASVGDRVTITCQASESIDNYLSWYQQKPGKAPKLLIYQAFKLASGVPSRFRGSGSGTDFTLTISSLQPEDFATYYCQSYSGISTTAFGGGTKVEIK
notes: Humanized variant
B8: IgG1-ROR2-A-HC7LC1-FEAR (antibody, V domains shown)
VH: EVQLLESGGGLVQPGGSLRLSCAASGFSLSSYSMSWVRQAPGKGLEWIGVIYVNSKTWYADSVKGRFTISKDNSKNTVYLQMNSLRAEDTATYYCARGDAGYTTNSWLWGQGTLVTVSS
VL: AFELTQSPSSLSASVGDRVTITCQASESIDNYCSWYQQKPGKAPKLLIYQAFKLASGVPSRFRGSGSGTDFTLTISSLQSEDFATYYCQSYSGISTTAFGGGTEVVIK
notes: Humanized variant

T1 sequence (Q01974 34-403): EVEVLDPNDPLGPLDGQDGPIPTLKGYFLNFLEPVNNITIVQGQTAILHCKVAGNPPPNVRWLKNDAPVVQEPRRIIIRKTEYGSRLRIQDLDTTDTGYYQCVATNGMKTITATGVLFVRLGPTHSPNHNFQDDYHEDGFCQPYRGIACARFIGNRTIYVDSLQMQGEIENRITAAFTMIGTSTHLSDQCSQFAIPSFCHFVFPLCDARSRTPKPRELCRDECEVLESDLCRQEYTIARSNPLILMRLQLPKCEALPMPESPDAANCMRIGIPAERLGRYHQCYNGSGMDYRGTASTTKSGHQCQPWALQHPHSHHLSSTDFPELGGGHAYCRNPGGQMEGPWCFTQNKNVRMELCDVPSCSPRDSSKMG

The test concerns the target T1, his-tagged ROR2 extracellular domain (ROR2-ECD, G&P Biosciences, cat. no. FCL0192) (human, UniProt Q01974 34-403).
T1 construct: Bought protein; also called human ROR2-ECD; recombinant human ROR2-ECD; not shown: his tag
The test is described as follows: BLI (Octet), antibody on anti-human IgG Fc sensor, ROR2-ECD 1.56-100 nM as analyte. Background: In BLI a coated tip is dipped into the sample, and binding shifts an interference pattern.
For orientation: Kd means the equilibrium constant for the complex coming apart. As a reminder, the koff is the rate constant with which the complex falls apart. A low value points to slow dissociation. In general, kon refers to the second-order rate constant of association. A high value points to faster complex formation. The molecule B1 displayed a Kd of 1.7 nM, an off-rate constant (koff) of 0.00084 s⁻¹ and a kon of 510000 M⁻¹ s⁻¹.

For the molecule B2, the Kd came out at 3.1 nM, the koff was found to be 0.0017 s⁻¹ and the kon came to 560000 M⁻¹ s⁻¹.

B3 had a dissociation constant Kd of 4.4 nM, a koff of 0.0025 s⁻¹ and a kon of 570000 M⁻¹ s⁻¹.

In the case of B4, the Kd turned out to be 5.1 nM, the dissociation rate constant (koff) was determined as 0.0028 s⁻¹ and the kon came to 550000 M⁻¹ s⁻¹.

B5 showed a Kd of 3.9 nM, a koff of 0.0022 s⁻¹ and a kon of 560000 M⁻¹ s⁻¹.

B6 registered a Kd of 1.9 nM, a koff of 0.0011 s⁻¹ and a kon of 550000 M⁻¹ s⁻¹.

In turn, B7 had a Kd of 4 nM, a dissociation rate constant (koff) of 0.0023 s⁻¹ and a kon of 560000 M⁻¹ s⁻¹.

Take B8: the dissociation constant Kd worked out at 3.8 nM, the koff is 0.0021 s⁻¹ and the kon came to 540000 M⁻¹ s⁻¹.
